B1: peptide-HDO conjugate of Example 48 (first nucleic acid strand A2, second nucleic acid strand C47) (peptide)
peptide: AVFVWNYYIIRRYYC
modifications: MeF at 3, MeY at 14 (N-methyl); thioether ring from N-terminal chloroacetyl-Ala to Cys 15; C-terminal Gly-KN3-NH2, azide joined to BCN on the oligonucleotide
notes: also called A2/C47
B2: peptide-HDO conjugate of Example 33 (first nucleic acid strand A1, second nucleic acid strand C33) (peptide)
peptide: AVFVWNYYIIRRYYC
modifications: MeF at 3, MeY at 14 (N-methyl); thioether ring from N-terminal chloroacetyl-Ala to Cys 15; C-terminal Gly-KN3-NH2, azide joined to BCN on the oligonucleotide
notes: also called A1/C33
B3: peptide-HDO conjugate of Example 52 (first nucleic acid strand A2, second nucleic acid strand C49) (peptide)
peptide: AVFVWNYYIIRRYYC
modifications: MeF at 3, MeY at 14 (N-methyl); thioether ring from N-terminal chloroacetyl-Ala to Cys 15; C-terminal Gly-PEG4c-KN3-NH2, azide joined to BCN on the oligonucleotide
notes: also called A2/C49
B4: peptide-HDO conjugate of Example 32 (first nucleic acid strand A1, second nucleic acid strand C32) (peptide)
peptide: AVFVWNYYIIRRYYC
modifications: MeF at 3, MeY at 14 (N-methyl); thioether ring from N-terminal chloroacetyl-Ala to Cys 15; C-terminal Gly-KN3-NH2, azide joined to BCN on the oligonucleotide
notes: also called A1/C32
B5: peptide-HDO conjugate of Example 15 (first nucleic acid strand A2, second nucleic acid strand C15) (peptide)
peptide: AVFVWNYYIIRRYYC
modifications: MeF at 3, MeY at 14 (N-methyl); thioether ring from N-terminal chloroacetyl-Ala to Cys 15; C-terminal Gly-KN3-NH2, azide joined to BCN on the oligonucleotide
notes: also called A2/C15
B6: peptide-HDO conjugate of Example 16 (first nucleic acid strand A2, second nucleic acid strand C16) (peptide)
peptide: AVFVWNYYIIRRYYC
modifications: MeF at 3, MeY at 14 (N-methyl); thioether ring from N-terminal chloroacetyl-Ala to Cys 15; C-terminal Gly-KN3-NH2, azide joined to BCN on the oligonucleotide
notes: also called A2/C16
B7: peptide-HDO conjugate of Example 53 (first nucleic acid strand A2, second nucleic acid strand C50) (peptide)
peptide: AVFVWNYYIIRRYYC
modifications: MeF at 3, MeY at 14 (N-methyl); thioether ring from N-terminal chloroacetyl-Ala to Cys 15; C-terminal Gly-PEG12c-KN3-NH2, azide joined to BCN on the oligonucleotide
notes: also called A2/C50
B8: peptide-HDO conjugate of Example 29 (first nucleic acid strand A1, second nucleic acid strand C29) (peptide)
peptide: AVFVWNYYIIRRYYC
modifications: MeF at 3, MeY at 14 (N-methyl); thioether ring from N-terminal chloroacetyl-Ala to Cys 15; C-terminal Gly-KN3-NH2, azide joined to BCN on the oligonucleotide
notes: also called A1/C29
B9: peptide-HDO conjugate of Example 19 (first nucleic acid strand A1, second nucleic acid strand C19) (peptide)
peptide: AVFVWNYYIIRRYYC
modifications: MeF at 3, MeY at 14 (N-methyl); thioether ring from N-terminal chloroacetyl-Ala to Cys 15; C-terminal Gly-KN3-NH2, azide joined to BCN on the oligonucleotide
notes: also called A1/C19
B10: peptide-HDO conjugate of Example 38 (first nucleic acid strand A2, second nucleic acid strand C30) (peptide)
peptide: AVFVWNYYIIRRYYC
modifications: MeF at 3, MeY at 14 (N-methyl); thioether ring from N-terminal chloroacetyl-Ala to Cys 15; C-terminal Gly-KN3-NH2, azide joined to BCN on the oligonucleotide
notes: also called A2/C30
B11: peptide-HDO conjugate of Example 14 (first nucleic acid strand A2, second nucleic acid strand C4) (peptide)
peptide: AVFVWNYYIIRRYYC
modifications: MeF at 3, MeY at 14 (N-methyl); thioether ring from N-terminal chloroacetyl-Ala to Cys 15; C-terminal Gly-KN3-NH2, azide joined to BCN on the oligonucleotide
notes: also called A2/C4
B12: peptide-HDO conjugate of Example 37 (first nucleic acid strand A2, second nucleic acid strand C29) (peptide)
peptide: AVFVWNYYIIRRYYC
modifications: MeF at 3, MeY at 14 (N-methyl); thioether ring from N-terminal chloroacetyl-Ala to Cys 15; C-terminal Gly-KN3-NH2, azide joined to BCN on the oligonucleotide
notes: also called A2/C29
B13: peptide-HDO conjugate of Example 26 (first nucleic acid strand A1, second nucleic acid strand C26) (peptide)
peptide: AVFVWNYYIIRRYYC
modifications: MeF at 3, MeY at 14 (N-methyl); thioether ring from N-terminal chloroacetyl-Ala to Cys 15; C-terminal Gly-KN3-NH2, azide joined to BCN on the oligonucleotide
notes: also called A1/C26
B14: peptide-HDO conjugate of Example 20 (first nucleic acid strand A1, second nucleic acid strand C20) (peptide)
peptide: AVFVWNYYIIRRYYC
modifications: MeF at 3, MeY at 14 (N-methyl); thioether ring from N-terminal chloroacetyl-Ala to Cys 15; C-terminal Gly-KN3-NH2, azide joined to BCN on the oligonucleotide
notes: also called A1/C20
B15: Y14-PMO conjugate of Example 61 (peptide)
peptide: AVFVWNYYIIRRYYC
chain: KKKG
modifications: not fully specified; N-terminal 4-pentynoyl-AEEA; ivDde groups on the three Lys removed with hydrazine; C-terminal Gly coupled to PMO A4; MeF at 3, MeY at 14 (N-methyl); thioether ring from N-terminal chloroacetyl-Ala to Cys 15; C-terminal Gly-KN3-NH2, azide joined by copper-catalysed click to the 4-pentynoyl group of the linker …
B16: peptide-HDO conjugate of Example 45 (first nucleic acid strand A1, second nucleic acid strand C45) (peptide)
peptide: AVFVWNYYIIRRYYC
modifications: MeF at 3, MeY at 14 (N-methyl); thioether ring from N-terminal chloroacetyl-Ala to Cys 15; C-terminal Gly-KN3-NH2, azide joined to BCN on the oligonucleotide
notes: also called A1/C45
B17: peptide-HDO conjugate of Example 9 (first nucleic acid strand A1, second nucleic acid strand C9) (peptide)
peptide: AVFVWNYYIIRRYYC
modifications: not fully specified; MeF at 3, MeY at 14 (N-methyl); thioether ring from N-terminal chloroacetyl-Ala to Cys 15; C-terminal Gly-KN3-NH2, azide joined to BCN on the oligonucleotide
notes: also called A1/C9
B18: Y11-PMO conjugate of Example 58 (peptide)
peptide: AVFVWNYYIIRRYYC
chain: GGGEEESSC
modifications: not fully specified; N-terminal BCN; C-terminal amide; tBuS removed from Cys, Cys thiol joined to 3-maleimide propionyl A1; MeF at 3, MeY at 14 (N-methyl); thioether ring from N-terminal chloroacetyl-Ala to Cys 15; C-terminal Gly-KN3-NH2, azide joined to BCN of the linker peptide
B19: peptide-HDO conjugate of Example 36 (first nucleic acid strand A2, second nucleic acid strand C28) (peptide)
peptide: AVFVWNYYIIRRYYC
modifications: MeF at 3, MeY at 14 (N-methyl); thioether ring from N-terminal chloroacetyl-Ala to Cys 15; C-terminal Gly-KN3-NH2, azide joined to BCN on the oligonucleotide
notes: also called A2/C28
B20: peptide-HDO conjugate of Example 28 (first nucleic acid strand A1, second nucleic acid strand C28) (peptide)
peptide: AVFVWNYYIIRRYYC
modifications: MeF at 3, MeY at 14 (N-methyl); thioether ring from N-terminal chloroacetyl-Ala to Cys 15; C-terminal Gly-KN3-NH2, azide joined to BCN on the oligonucleotide
notes: also called A1/C28
B21: peptide-HDO conjugate of Example 42 (first nucleic acid strand A1, second nucleic acid strand C42) (peptide)
peptide: AVFVWNYYIIRRYYC
modifications: MeF at 3, MeY at 14 (N-methyl); thioether ring from N-terminal chloroacetyl-Ala to Cys 15; C-terminal Gly-KN3-NH2, azide joined to BCN on the oligonucleotide
notes: also called A1/C42
B22: peptide-HDO conjugate of Example 46 (first nucleic acid strand A2, second nucleic acid strand C44) (peptide)
peptide: AVFVWNYYIIRRYYC
modifications: MeF at 3, MeY at 14 (N-methyl); thioether ring from N-terminal chloroacetyl-Ala to Cys 15; C-terminal Gly-KN3-NH2, azide joined to BCN on the oligonucleotide
notes: also called A2/C44
B23: peptide-HDO conjugate of Example 40 (first nucleic acid strand A2, second nucleic acid strand C32) (peptide)
peptide: AVFVWNYYIIRRYYC
modifications: MeF at 3, MeY at 14 (N-methyl); thioether ring from N-terminal chloroacetyl-Ala to Cys 15; C-terminal Gly-KN3-NH2, azide joined to BCN on the oligonucleotide
notes: also called A2/C32
B24: peptide-HDO conjugate of Example 49 (first nucleic acid strand A1, second nucleic acid strand C49) (peptide)
peptide: AVFVWNYYIIRRYYC
modifications: MeF at 3, MeY at 14 (N-methyl); thioether ring from N-terminal chloroacetyl-Ala to Cys 15; C-terminal Gly-PEG4c-KN3-NH2, azide joined to BCN on the oligonucleotide
notes: also called A1/C49
B25: peptide-HDO conjugate of Example 24 (first nucleic acid strand A2, second nucleic acid strand C19) (peptide)
peptide: AVFVWNYYIIRRYYC
modifications: MeF at 3, MeY at 14 (N-methyl); thioether ring from N-terminal chloroacetyl-Ala to Cys 15; C-terminal Gly-KN3-NH2, azide joined to BCN on the oligonucleotide
notes: also called A2/C19
B26: Y10-PMO conjugate of Example 57 (peptide)
peptide: AVFVWNYYIIRRYYC
chain: RRRA
modifications: not fully specified; N-terminal BCN-AEEA; C-terminal beta-Ala coupled to the 3' end of PMO A1; MeF at 3, MeY at 14 (N-methyl); thioether ring from N-terminal chloroacetyl-Ala to Cys 15; C-terminal Gly-KN3-NH2, azide joined to BCN of the linker peptide

Target: T1, human transferrin receptor (hTfR) (human, UniProt P02786 89-760, limits assumed)
T1 construct: 0.5 uM hTfR solution immobilised on a Ni-NTA chip with EDC/NHS; source and construct are not described; also called human TfR
T1 sequence (P02786 89-760 limits assumed): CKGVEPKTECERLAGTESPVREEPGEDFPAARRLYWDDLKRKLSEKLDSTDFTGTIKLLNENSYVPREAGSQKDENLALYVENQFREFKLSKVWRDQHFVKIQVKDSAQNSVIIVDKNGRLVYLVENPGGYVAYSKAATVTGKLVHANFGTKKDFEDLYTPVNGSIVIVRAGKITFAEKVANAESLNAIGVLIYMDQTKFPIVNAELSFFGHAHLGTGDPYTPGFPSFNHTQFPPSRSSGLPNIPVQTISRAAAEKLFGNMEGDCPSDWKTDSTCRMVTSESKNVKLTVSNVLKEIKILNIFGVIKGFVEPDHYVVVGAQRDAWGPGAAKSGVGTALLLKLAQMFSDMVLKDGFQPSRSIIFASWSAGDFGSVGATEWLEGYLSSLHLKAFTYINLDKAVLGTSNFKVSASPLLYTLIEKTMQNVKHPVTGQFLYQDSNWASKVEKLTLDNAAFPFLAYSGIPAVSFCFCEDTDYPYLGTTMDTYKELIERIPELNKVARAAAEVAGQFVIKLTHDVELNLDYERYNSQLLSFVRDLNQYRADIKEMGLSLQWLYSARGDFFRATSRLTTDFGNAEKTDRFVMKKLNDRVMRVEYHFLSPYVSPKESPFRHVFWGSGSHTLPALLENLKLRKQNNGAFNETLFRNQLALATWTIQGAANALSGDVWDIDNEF
Assay: SPR, hTfR immobilised on NTA chip, single cycle kinetics; A = KD less than 100 nM
Procedure: The various synthesized peptide-nucleic acid conjugates were tested for intermolecular interaction by surface plasmon resonance (SPR) of the peptide-nucleic acid conjugate with transferrin receptor (hTfR) using the method shown below. The specific test method is shown below.
NTA sensor chip (Global Life Science Technologies Japan Co., Ltd.) was inserted into Biacore T200 (Global Life Science Technologies Japan Co., Ltd.), prime operation was performed three times with running buffer: 10 mM HEPES pH 8.0 (Nacalai Tesque Co., Ltd.), 150 mM NaCl (Nacalai Tesque Co., Ltd.), 0.05% Tween 20 (Nacalai Tesque Co., Ltd.), 0.1% BSA (SIGMA-ALDRICH), and 1.0% DMSO (FUJIFILM Wako Pure Chemical Corporation), and equilibrated at a flow rate of 30 μL/min. 350 mM EDTA solution was reacted for 60 seconds at a flow rate of 10 μL/min, 0.5 mM NiCl₂ solution (Kishida Chemical) was reacted for 60 seconds at a flow rate of 10 μL/min, and the NTA sensor chip was washed with 3 mM EDTA solution (Nacalai Tesque Co., Ltd.) for 60 seconds at a flow rate of 10 μL/min. After mixing 50 μL each of 60 mM EDC solution (Global Life Science Technologies Japan Co., Ltd.) and 650 mM NHS solution (Global Life Science Technologies Japan Co., Ltd.), the mixture was reacted for 420 seconds at a flow rate of 10 μL/min. 150 μL of a 0.5 μM hTfR solution was prepared by diluting with a running buffer and reacted for 300 seconds at a flow rate of 10 μL/min to immobilize hTfR on the NTA sensor chip. After immobilization, capping was performed by reacting with a 1.0 M ethanolamine aqueous solution (Global Life Science Technologies Japan Co., Ltd.) at a flow rate of 10 μL/min for 420 seconds. A peptide-nucleic acid conjugate solution adjusted to 10 mM in DMSO solution was diluted with running buffer to a final concentration of […] peptide-nucleic acid conjugate solution, and 100 nM, 50 nM, 25 nM, 10 nM, 5 nM peptide-nucleic acid conjugate solutions were prepared. Using the aforementioned samples, the kinetics of the peptide against hTfR was obtained by SPR measurement.
The kinetics evaluation model was Single Cycle Kinetics, and curve fitting was performed using Biacore T200 Evaluation Software Version 3.0 (Global Life Science Technologies Japan Co., Ltd.).

Kd, < 100 nM:
B1
B2
B3
B4
B5
B6
B7
B8
B9
B10
B11
B12
B13
B14
B15
B16
B17
B18
B19
B20
B21
B22
B23
B24
B25
B26

From patent US20240390508A1 (Takeda / Millennium, published 2024)
